According to the DeepSol protein solubility set:

Test: soluble on expression in E. coli; label from the status in PepcDB or PDB records

Sequence | soluble on expression in E. coli
MGSDKIHHHHHHMATALYTANDFILISLPQNAQPVTAPGSKTDSWFNETLIGGRAFVSDFKIPEFKIGSLDTLIVESEELSKVDNQIGASIGKIIEILQGLNETSTNAYRTLPINNMPVPEYLENFQWQTRKFKLDKSIKDLITLISNESSQLDADVRATYANYNSAKTNLAAAERKKTGDLSVRSLHDIVKPEDFVLNSEHLTTVLVAVPKSLKSDFEKSYETLSKNVVPASASVIAEDAEYVLFNVHLFKKNVQEFTTAAREKKFIPREFNYSEELIDQLKKEHDSAASLEQSLRVQLVRLAKTAYVDVFINWFHIKALRVYVESVLRYGLPPHFNIKIIAVPPKNLSKCKSELIDAFGFLGGNAFMKDKKGKINKQDTSLHQYASLVDTEYEPFVMYIINL | not soluble
MSLKREEICRLLADKVNKLKNKENSLSELLPDVRLLYGETPFARTPVMYEPGIIILFSGHKIGYINERVFRYDANEYLLLTVPLPFECETYATSEVPLAGLRLNVDILQLQELLMDEGHHHHHH | not soluble
SSSEQKSQHCKPEEGVEAQEEALGLVGAQAPTTEEQEAAVSSSSPLVPGTLEEVPAAESAGPPQSPQGASALPTTISFTCWRQPNEGSSSQEEEGPSTSPDAESLFREALSNKVDELAHFLLRKYRAKELVTKAEMLERVIKNYKRCFPVIFGKASESLKMIFGIDVKEVDPTSNTYTLVTCLGLSYDGLLGNNQIFPKTGLLIIVLGTIAMEGDSASEEEIWEELGVMGVYDGREHTVYGEPRKLLTQDWVQENYLEYRQVPGSNPARYEFLWGPRALAETSYVKVLEHVVRVNARVRIAYPSLREAALLEEEEGV | soluble
AQYKDDPILKAATIVSAPLDLAACANRIEQGFSKVYRRYLLSSLKRNALQKHHLLHGELALSYNSIKRVTRLYEFDDLITAPLHGFKDAQDYYDQCSGLSKLLQITLPTLIIHAKDDPFMTEEVIPKFVLPDNIDYRLFEHGGHVGFLTGT | not soluble
MKAKREALISLFHAIKEEKVDSDIIDLLLLINSIKGIYTTSSCSGRIGILEEPSLGAKPLSRWLIKVHRPMSFEEARDALKRAREGLIFLKSQPPIFHVVAETIENAKLVHEIGLASGFKYTTFKAISSRFLVEINGTEYLTVPLGKDGRIIASDEYLKFAISIGNKMLERGKSKLPRLRDNFEKIKKKLGEDPLFIQLKREILEI | soluble
MELLVKMGWDDWFAAHAGASSDAGRPGRVVAEQRGEYRVRTADGEVAAILTGRAMRETAGDRLERPVVGDWVIVEPVAGDSTVLVRAVLPRRTILARRESGRGAEVQPVAANVDIVFIVAGLDGALNLRRLERFLAAARESGAEPVVLLTKSDLAGDPAAPAEEAATVAPGIRVMTVSSLDGAGVDEVGALLAPGVTACFIGPSGVGKSSLVNLLAGDPVMAIGAVRERDAKGRHTTTHRQLILLPGGGIVIDTPGMREFGLWQVDEGIDAAFPEIAELAAGCRFHDCSHRHEPGCAVRTALAEGGLDPGRYGSYLKLRLEEETMATLADAEGRRERKKGERRMAKGLRAVLRKKGKK | not soluble
MSSLTDKTRNGALKRNLLRQMLKASVFKFGEFQLKSGQISPIYIDLRECFGHPGLLMLISEAISKQVEISEVQYAGVLGIPYAALPYASVAAGNYLKKPLLIVRKEAKSYGTKKLIEGLYQPNDRLILIEDVVTTGGSILDVVKVLHTENLVASDVFCILDREQGGRQKLQDAGVTLHSLLDMQTVLTFLYSTGAIGDEQWHGIVQALNLPYTSPTKLEINSELENLSSLPYVENVRTPLAERESLTESALIKKILGIMRRKKSNLCLAVDYTTVEQCLQMIELAGPFVLAIKLHADAITDFNEEFTRKLTTMANDMDFIIFEDRKFGDTGNTNLLQLTGAQKIANWADVVTVHAVQGSDSIAGVFRKLAKDPTYRLSGVLLIAQLSTKGSLTALEGYTETAVKIANENRDVISGFITQTRVSACSDLLNWTPGVNLDAKSDSAGQQWRGVDEAIEVQQNDIIIVGRGVTSSSEPVQQLKRYRQIAWDALTRSDDSI | not soluble
MTLEWEEFLDPYIQAVGELKIKLRGIRKQYRKQNKHSPIEFVTGRVKPIESIKEKMARRGITYATLEHDLQDIAGLRVMVQFVDDVKEVVDILHKRQDMRIIQERDYITHRKASGYRSYHVVVEYTVDTINGAKTILAEIQIRTLAMNFWATIEHSLNYKYQGDFPDEIKKRLEITARIAHQLDEEMGEIRDDIQEAQALFDPLSRKLNDGVGNSDDTDEEYR | soluble
